According to PMC12931730 (2025):

Legend:
[1] = molecular target: T1, lysin motif (LysM) peptidoglycan-binding domain-containing protein (LPDP), recombinant (Staphylococcus lentus, UniProt A0A8I0UA09); assay: MST
[2] = molecular target: T1, lysin motif (LysM) …; assay: MST; in the presence of tubuloside B

B1: PDZ and LIM domain 3 (PDLIM3) (natural protein)
chain: MPQNVVLPGPAPWGFRLSGGIDFNQPLVITRITPGSKAAAANLCPGDVILAIDGFGTESMTHADAQDRIKAASYQLCLKIDRAETRLWSPQVSEDGKAHPFKINLEAEPQEFKPIGTAHNRRAQPFVAAANIDDKRQVVSASYNSPIGLYSTSNIQDALHGQLRGLIPGSLQNEPTASVPPQSDVYRMLHDNRDDPAAPRQSGSFRVLQDLVNDGPDDRPAGTRSVRAPVTKVHGGAGSAQRMPLCDKCGSGIVGAVVKARDKYRHPECFVCADCNLNLKQKGYFFVEGELYCETHARARTRPPEGYDTVTLYPKA
modifications: fluorescently labeled with the Monolith His-Tag Labeling Kit (in the microscale thermophoresis only)
Binder B1 has a Kd [1] of 930 nM and a Kd [2] of 4550 nM.
